For assay [1], the target named is T1, STAT3 (recombinant, pET‐28a) (mouse, UniProt P42227 1-770).
T1 construct: STAT3 in pET‐28a; cDNA amplified from mouse liver; The legend of the sedimentation assay names 'STAT3'; source: E. coli BL21, purified (HiTrap HP chelating column)
Description: co-sedimentation; sedimentation assay of condensates: purified proteins mixed in phase separation buffer (20 mM HEPES pH 7.8, NaCl, PEG‐8000), 15 000 g for 10 min, supernatant and pellet on SDS–PAGE with Coomassie staining. The settings on record: both partners purified.

The target of assay [2] is T2, H4 (recombinant, pET‐28a) (mouse, UniProt P62806 1-103).
T2 construct: histone H4 in pET‐28a; cDNA amplified from mouse liver; The legend of the sedimentation assay names 'H4'; also called histone H4; source: E. coli BL21, purified (HiTrap HP chelating column)
The assay is described as above. The note with it: both partners purified.

T1 sequence (P42227 whole entry): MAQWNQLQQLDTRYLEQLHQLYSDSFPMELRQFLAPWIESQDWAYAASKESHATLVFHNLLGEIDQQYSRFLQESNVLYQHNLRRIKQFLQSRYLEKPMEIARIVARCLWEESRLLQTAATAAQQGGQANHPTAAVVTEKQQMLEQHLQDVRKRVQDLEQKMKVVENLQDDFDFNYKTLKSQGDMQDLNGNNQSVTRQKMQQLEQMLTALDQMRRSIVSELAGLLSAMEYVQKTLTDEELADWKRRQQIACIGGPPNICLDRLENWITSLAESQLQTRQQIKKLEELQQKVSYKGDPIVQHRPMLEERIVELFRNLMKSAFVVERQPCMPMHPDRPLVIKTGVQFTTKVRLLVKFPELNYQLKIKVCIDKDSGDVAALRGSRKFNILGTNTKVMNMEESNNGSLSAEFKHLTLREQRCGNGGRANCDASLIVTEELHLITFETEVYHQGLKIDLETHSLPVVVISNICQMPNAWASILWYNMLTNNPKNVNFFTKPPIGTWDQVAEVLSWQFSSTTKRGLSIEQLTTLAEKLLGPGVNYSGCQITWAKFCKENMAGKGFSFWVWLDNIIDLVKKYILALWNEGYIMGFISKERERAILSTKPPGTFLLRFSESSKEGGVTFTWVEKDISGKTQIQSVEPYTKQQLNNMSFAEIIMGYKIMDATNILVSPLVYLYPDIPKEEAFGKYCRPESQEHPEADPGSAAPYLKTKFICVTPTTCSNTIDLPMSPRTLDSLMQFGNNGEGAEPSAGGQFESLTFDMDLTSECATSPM

B1: MSL1 (recombinant, pET‐28a) (natural protein, mouse, UniProt Q6PDM1 1-616, looked up)
chain: MTMRSAVFKAAAAPAGGNPEQRLDYERAAALGGPEDESGAAEAHFLPRHRKLKEPGPPLASSQGGSPSPSPAGCGGGKGRGLLLPAGAAPGQQEESWGGSVPLPCPPPATKQAGIGGEPVAAGAGCSPRPKYQAVLPIQTGSIVVAAAKEPTPWAGDKGGAAPPAATASDPAGPPPLPLPGPPPLAPTATAGTLAASEGRWKSIRKSPLGGGGGSGASSQAACLKQILLLQLDLIEQQQQQLQAKEKEIEELKSERDTLLARIERMERRMQLVKRDNEKERHKLLQGYEPEEREEAELSEKIKLERQPELCETSQALPSKPFSCGRSGKGHKRKTPFGNTERKTPVKKLAPEFSKVKTKTPKHSPIKEEPCGSISETVCKRELRSQETPEKPRSSVDTPPRLSTPQKGPSTHPKEKAFSSEMEDLPYLSTTEMYLCRWHQPPPSPLPLRESSPKKEETVARCLMPSSVAGETSVLAVPSWRDHSVEPLRDPNPSDILENLDDSVFSKRHAKLELDEKRRKRWDIQRIREQRILQRLQLRMYKKKGIQESEPEVTSFFPEPDDVESLLITPFLPVVAFGRPLPKLAPQNFELPWLDERSRCRLEIQKKHTPHRTCRK
notes: MSL1 in pET‐28a; cDNA amplified from mouse liver; The legend of the sedimentation assay names 'MSL1'; source: E. coli BL21, purified (HiTrap HP chelating column)
In the case of B1, the binding result in assay [1] and in assay [2] was “binds” each time.

Values taken from publication PMC10427353, “MSL1 Promotes Liver Regeneration by Driving Phase Separation of STAT3 and Histone H4 and Enhancing Their Acetylation” (Advanced Science, 2023).
